The data set deals with Neuropeptide Y (NPY) (UniProt P01303 29-64). Kind of data set: electrochemical aptasensor (SWV, steady state); 1-1000 pg/mL; best NPY response of the three aptamers; aCSF pH 7.4 (composition by citation); SWV -0.4 to 0.0 V, 30 Hz; IPA 500 Hz in flow cell; assay temperature not stated. The following applies: protein: commercial; label: 3' methylene blue; immobilized on Pt via 5' thiol.

These results are taken from paper PMC11127761, “Development of a Neuropeptide Y-Sensitive Implantable Microelectrode for Continuous Measurements”.

B1: Aptamer 4.31 (ssDNA)
DNA: AGCAGCACAGAGGTCAGATGCAAACCACAGCCTGAGTGGTTAGCGTATGTCATTTACGGACCTATGCGTGCTACCGTGAA
modifications: 5' thiol C6 (disulfide reduced), 3' amino linker
Turning to B1, the binding result is recorded as “binds”.
